From PMC6656915, “The MmpL3 interactome reveals a complex crosstalk between cell envelope biosynthesis and cell elongation and division in mycobacteria” (Scientific Reports, 2019)

T1: MmpL3 protein from M. tuberculosis, C-terminally hexahistidine-tagged, devoid of gfp fusion (M. tuberculosis, UniProt P9WJV5 1-944)
T1 construct: MmpL3 (Rv0206c), mycolic acid (TMM) transporter of M. tuberculosis; also called MmpL3tb; Rv0206c
T1 sequence: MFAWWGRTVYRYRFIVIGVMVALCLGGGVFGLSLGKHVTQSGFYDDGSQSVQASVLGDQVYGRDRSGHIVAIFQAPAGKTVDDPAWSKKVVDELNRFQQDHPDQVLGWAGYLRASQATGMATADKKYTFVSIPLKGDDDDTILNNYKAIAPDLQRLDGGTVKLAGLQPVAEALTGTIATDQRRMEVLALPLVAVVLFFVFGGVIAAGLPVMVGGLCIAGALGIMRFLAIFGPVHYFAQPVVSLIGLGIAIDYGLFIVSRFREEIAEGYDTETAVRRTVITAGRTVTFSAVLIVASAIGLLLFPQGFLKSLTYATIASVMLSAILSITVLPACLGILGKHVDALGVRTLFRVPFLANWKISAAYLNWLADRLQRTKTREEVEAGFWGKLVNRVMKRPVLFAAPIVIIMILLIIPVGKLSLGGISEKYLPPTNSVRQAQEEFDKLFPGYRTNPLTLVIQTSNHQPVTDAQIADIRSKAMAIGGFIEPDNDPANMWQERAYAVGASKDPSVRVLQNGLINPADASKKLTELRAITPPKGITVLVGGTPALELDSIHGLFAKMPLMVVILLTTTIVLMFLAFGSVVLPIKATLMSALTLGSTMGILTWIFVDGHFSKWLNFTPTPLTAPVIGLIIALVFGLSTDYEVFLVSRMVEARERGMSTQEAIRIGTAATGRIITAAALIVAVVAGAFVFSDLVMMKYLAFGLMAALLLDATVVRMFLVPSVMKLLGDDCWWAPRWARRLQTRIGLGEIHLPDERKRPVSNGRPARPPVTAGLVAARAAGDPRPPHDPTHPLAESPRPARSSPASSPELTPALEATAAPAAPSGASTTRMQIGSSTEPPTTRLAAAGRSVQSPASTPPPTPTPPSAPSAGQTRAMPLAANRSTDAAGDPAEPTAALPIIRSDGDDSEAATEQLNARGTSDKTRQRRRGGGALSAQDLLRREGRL

T2: MmpL3 from M. tuberculosis, C-terminally hexahistidine-tagged, purified (M. tuberculosis, UniProt P9WJV5 1-944)
T2 chain: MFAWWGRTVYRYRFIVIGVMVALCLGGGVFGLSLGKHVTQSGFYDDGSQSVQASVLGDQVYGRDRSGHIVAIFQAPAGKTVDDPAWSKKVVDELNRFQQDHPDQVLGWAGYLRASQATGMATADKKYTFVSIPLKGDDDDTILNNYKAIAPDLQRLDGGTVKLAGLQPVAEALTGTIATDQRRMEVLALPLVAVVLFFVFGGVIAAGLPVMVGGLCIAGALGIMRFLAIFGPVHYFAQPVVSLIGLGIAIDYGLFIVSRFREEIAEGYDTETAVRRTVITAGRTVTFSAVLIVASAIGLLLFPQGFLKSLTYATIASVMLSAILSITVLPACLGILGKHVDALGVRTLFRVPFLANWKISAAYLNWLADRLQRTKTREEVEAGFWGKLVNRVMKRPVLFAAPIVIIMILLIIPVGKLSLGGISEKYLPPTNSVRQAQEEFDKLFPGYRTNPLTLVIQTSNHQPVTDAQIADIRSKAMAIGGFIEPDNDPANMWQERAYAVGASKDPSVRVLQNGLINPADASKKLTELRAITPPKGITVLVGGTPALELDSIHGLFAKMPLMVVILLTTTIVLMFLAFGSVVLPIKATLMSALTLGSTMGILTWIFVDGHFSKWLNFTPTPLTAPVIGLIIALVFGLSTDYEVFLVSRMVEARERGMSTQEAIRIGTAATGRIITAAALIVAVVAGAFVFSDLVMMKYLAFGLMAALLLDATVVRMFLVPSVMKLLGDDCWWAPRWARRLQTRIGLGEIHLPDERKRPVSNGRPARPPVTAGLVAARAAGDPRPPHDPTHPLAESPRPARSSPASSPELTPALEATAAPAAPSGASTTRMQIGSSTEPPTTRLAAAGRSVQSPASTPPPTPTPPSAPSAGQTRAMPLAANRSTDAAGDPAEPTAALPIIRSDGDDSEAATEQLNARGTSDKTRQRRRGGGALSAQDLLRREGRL


What was measured:
[1] = molecular target: MmpL3 protein from M. tuberculosis, C-terminally hexahistidine-tagged, devoid of gfp fusion (M. tuberculosis) (UniProt P9WJV5); assay: SPR; MmpL3 immobilised on CM5 chip; analytes injected at two-fold increasing concentrations from 0.6 µM up to 10 µM, 10 µL/min for 30 sec, dissociation 180 sec, 25 °C; 20 mM HEPES pH 7.4, 150 mM NaCl, 0.2% Triton X-100 (0.03% DDM instead for AftD); global fit to the 1:1 Langmuir binding model
[2] = molecular target: T1, MmpL3 protein from M. tuberculosis, …; assay: as above; settings: both partners purified
[3] = molecular target: T2, MmpL3 from M. tuberculosis, …; assay: SPR

Row | Molecule | Kd [1] [nM] | koff [1] [s⁻¹] | kon [1] [M⁻¹ s⁻¹] | Kd [2] [nM] | koff [2] [s⁻¹] | kon [2] [M⁻¹ s⁻¹] | Kd [3] [nM]
1 | AftD from Mycobacterium abscessus (enzyme) | 170 | 0.00335 | 19400 |  |  |  | 
2 | Rv0207c from M. tuberculosis H37Rv with C-terminal hexahistidine tag (natural protein, Rv0207c, conserved protein of unknown function of M. tuberculosis H37Rv) MSLTEDVTSQTSESLARHSVLAEDLSQDGLTSLGAPGARVLLVWDAPNLDMGLGSILGRRPTALERPRFDALGRWLLARTAEIVAGRPGISTEPEATVFTNIAPGSAEVVRPWVDALRNVGFAVFAKPKVDEDSDVDRDMLAHIDERYREGLAALVVASADGQAFRQPLEAVARSGTPVQVLGFREHASWALASDTLEFVDLEDIAGVFREPLPRIGLDSLPEQGAWLQPFRPLSSLLTSRV |  |  |  | 150 | 0.00227 | 14900 | 152
3 | CrgA from M. tuberculosis H37Rv with C-terminal hexahistidine tag (natural protein, CrgA (Rv0011c), cell division regulatory protein of M. tuberculosis H37Rv; also called Rv0011c) MPKSKVRKKNDFTVSAVSRTPMKVKVGPSSVWFVSLFIGLMLIGLIWLMVFQLAAIGSQAPTALNWMAQLGPWNYAIAFAFMITGLLLTMRWH |  |  |  | 470 | 0.0015 | 3180 | 
4 | AftD from Mycobacterium abscessus, N-terminal 10-histidine tag, purified (natural protein) MTYRLDSSALSRRWLAVAAAVSLLLTFSQSPGQISPDTKLDLAINPLRFAARALNLWSSDLPFGQAQNQAYGYLFPHGAFFSLGHLLGVPAWVTQRLWWALLIVAGFWGLIRVAEALGIGTRGSRIIAAVAFALSPRVLTTLGAISSETLPMMLAPWVLLPLILTFQGRMSPRRAAALSAVAVALMGAVNAVATALACGVAVIWWLAHRPNRTWWRFTAWWIPCLALASTWWIVALLIFGKISPKFLDFIESSGVTTQWTSLTEVLRGTDSWTPFVAPTATAGSSLVTQSAMVIATTMLAAAGMAGLAMRGMPARGRLVAVLLIGLVLLTAGYTGALGSPIAQQIQFFLDDGGTPLRNVHKLEPLIRLPLILGLAHALSRIPLPASVPVRQWLSALARPERNRAVAFAIVLLVALAASTSLAWTGRLVPRGGFDAIPGYWNDTAHWLADHDTGGRALVVPGAPFAIQTWGLTRDEPLQALGQTPWGVRDSIPLTPPETIRAIDSVQQLFAAGRPSDGLADTLREQGISYLVVRNDLDPDTSRSARPILVHHTIEGSPGLTKVAQFGDPVGAGAVEGFVADSDLRPQYPAVEIYAVGANDHDGEPYFTDIDTMPRVAGGPEALLRLNERRRQLNEPPLGPSLLATDAAQAGLRPGPAVVTDTPLARETDYGRVDDHSSAIRAPGDKRRTFNRVPDYPATGVPLVNGSWTGGTITASSSASDSTALPNVAPGTSTAAAIDRDNATSWVSSSLEAALGQWIRIDLDRPITNAILTVTPSATALGAQVRRLEVETDNGTTSVRFDEPGQPLNIALRPGETTWVKVTATGTDDGTSGVQFGVTELSLTQYDAAGFAHTVDLRHSATVPPPPAGDNPLGWDLGSPLQGRSGCAPSPQRLRCAATLSLAPEEPGTFIRTLTVPQPVSLTPRLWVRARPGPQLRDLIQQPGTTVATGDSDVIDPQGSSYAATDGDPGTVWTAPQDSVQRLHLPSLVIKLPKPTAIGAIRLRPSRTEVPAHPKQVAINLGDGPQLRSIDPKADVTELALHPSITDTITVTVTDWTDIIDRTALGFDQLKPPGIAEVIALDADHRPIAPADNAANSKRKITIGCNRGPILALAGRFVPMSITATVRELLDGTVIQATPCDTSPIATGAGIQDVTVNPSQQFIVDGVQLTAAATEPASATMTVAPKGAWGPDRREVTAEPSAHERVLAVPESINPGWAARDAQGHLLTPVRVNGWQQGWVLPAGDGGKITLTFGLNTWYRAGLFGGLALLPILACLALLPARGRTTLPPVAPWCAGPAAGVAVLAALTAISGISGMAVGLAALAFKVWTRWPLRAVTAAGVYLAGGSLLLAGAALSRHPWRSVGGYTGHSWWIQLLALISVASVALAAVRLPSRRCWKRRSASREGDSTSA |  |  |  |  |  |  | 172
